Results from PMC2720046 (Science (New York, N.Y.), 2008).

Legend:
CEP55-EABR [1] = experiment: Analytical ultracentrifugation of CEP55-EABR to peptide mixtures; type: binding; conditions: TSG101 peptide added to preformed 2:1 CEP55:ALIX peptide complex
CEP55-EABR [2] = type: binding; conditions: pull-down by GST-ALIX fragment with TSG101 peptide competitor
[3] = target: T1, CEP55-EABR (residues 160−217) (Homo sapiens, UniProt Q53EZ4); experiment: ITC titration of peptide into CEP55-EABR solution; type: binding; conditions: compared with ALIX peptide
T1 sequence (Q53EZ4 160-217): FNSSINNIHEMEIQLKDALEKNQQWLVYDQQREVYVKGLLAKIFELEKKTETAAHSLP

TSG101 154-166 = target: T2, TSG101 154-166 (Homo sapiens, UniProt Q99816); experiment: ITC
T2 chain: QATGPPNTSYMPG

ALIX 797-809 = target: T3, ALIX 797-809 (Homo sapiens, UniProt Q8WUM4); experiment: ITC
T3 chain: QAQGPPYPTYPGY

midbodies in HeLa cells = experiment: Midbody localization of wild-type and mutant GFP-ALIX expressed in HeLa cells; type: cell-based; conditions: full-length GFP-tagged ALIX, α−tubulin staining

TSG101 peptide: related TSG101 peptide (residues 154 to 166) (QATGPPNTSYMPG; UniProt Q99816 154-166, looked up, fragment)
competition with ALIX peptide for CEP55 site (CEP55-EABR [1]): a peak corresponding to the equivalent amount of uncomplexed peptide is formed, suggesting that TSG101 and ALIX compete for the same site
competition for CEP55-EABR binding site (CEP55-EABR [2]): the two peptides interact with the same site
affinity relative to ALIX peptide [3]: essentially the same affinity and stoichiometry

B1: CEP55 160-217 (protein)
chain: FNSSINNIHEMEIQLKDALEKNQQWLVYDQQREVYVKGLLAKIFELEKKTETAAHSLP
Kd (TSG101 154-166): ~1000 nM
Kd (ALIX 797-809): 1000 nM

B2: ALIX^Y806A: full-length ALIX mutant tagged with GFP (protein, UniProt Q8WUM4 1-868, looked up, variant Y806A)
chain: MATFISVQLKKTSEVDLAKPLVKFIQQTYPSGGEEQAQYCRAAEELSKLRRAAVGRPLDKHEGALETLLRYYDQICSIEPKFPFSENQICLTFTWKDAFDKGSLFGGSVKLALASLGYEKSCVLFNCAALASQIAAEQNLDNDEGLKIAAKHYQFASGAFLHIKETVLSALSREPTVDISPDTVGTLSLIMLAQAQEVFFLKATRDKMKDAIIAKLANQAADYFGDAFKQCQYKDTLPKEVFPVLAAKHCIMQANAEYHQSILAKQQKKFGEEIARLQHAAELIKTVASRYDEYVNVKDFSDKINRALAAAKKDNDFIYHDRVPDLKDLDPIGKATLVKSTPVNVPISQKFTDLFEKMVPVSVQQSLAAYNQRKADLVNRSIAQMREATTLANGVLASLNLPAAIEDVSGDTVPQSILTKSRSVIEQGGIQTVDQLIKELPELLQRNREILDESLRLLDEEEATDNDLRAKFKERWQRTPSNELYKPLRAEGTNFRTVLDKAVQADGQVKECYQSHRDTIVLLCKPEPELNAAIPSANPAKTMQGSEVVNVLKSLLSNLDEVKKEREGLENDLKSVNFDMTSKFLTALAQDGVINEEALSVTELDRVYGGLTTKVQESLKKQEGLLKNIQVSHQEFSKMKQSNNEANLREEVLKNLATAYDNFVELVANLKEGTKFYNELTEILVRFQNKCSDIVFARKTERDELLKDLQQSIAREPSAPSIPTPAYQSSPAGGHAPTPPTPAPRTMPPTKPQPPARPPPPVLPANRAPSATAPSPVGAGTAAPAPSQTPGSAPPPQAQGPPYPTAPGYPGYCQMPMPMGYNPYAYGQYNMPYPPVYHQSPGQAPYPGPQQPSYPFPQPPQQSYYPQQ
modifications: full-length GFP fusion
midbody localization of GFP-ALIX (midbodies in HeLa cells): no midbody localization above background

B3: wild-type ALIX: full-length wild-type ALIX tagged with GFP (protein, UniProt Q8WUM4 1-868, looked up)
chain: MATFISVQLKKTSEVDLAKPLVKFIQQTYPSGGEEQAQYCRAAEELSKLRRAAVGRPLDKHEGALETLLRYYDQICSIEPKFPFSENQICLTFTWKDAFDKGSLFGGSVKLALASLGYEKSCVLFNCAALASQIAAEQNLDNDEGLKIAAKHYQFASGAFLHIKETVLSALSREPTVDISPDTVGTLSLIMLAQAQEVFFLKATRDKMKDAIIAKLANQAADYFGDAFKQCQYKDTLPKEVFPVLAAKHCIMQANAEYHQSILAKQQKKFGEEIARLQHAAELIKTVASRYDEYVNVKDFSDKINRALAAAKKDNDFIYHDRVPDLKDLDPIGKATLVKSTPVNVPISQKFTDLFEKMVPVSVQQSLAAYNQRKADLVNRSIAQMREATTLANGVLASLNLPAAIEDVSGDTVPQSILTKSRSVIEQGGIQTVDQLIKELPELLQRNREILDESLRLLDEEEATDNDLRAKFKERWQRTPSNELYKPLRAEGTNFRTVLDKAVQADGQVKECYQSHRDTIVLLCKPEPELNAAIPSANPAKTMQGSEVVNVLKSLLSNLDEVKKEREGLENDLKSVNFDMTSKFLTALAQDGVINEEALSVTELDRVYGGLTTKVQESLKKQEGLLKNIQVSHQEFSKMKQSNNEANLREEVLKNLATAYDNFVELVANLKEGTKFYNELTEILVRFQNKCSDIVFARKTERDELLKDLQQSIAREPSAPSIPTPAYQSSPAGGHAPTPPTPAPRTMPPTKPQPPARPPPPVLPANRAPSATAPSPVGAGTAAPAPSQTPGSAPPPQAQGPPYPTYPGYPGYCQMPMPMGYNPYAYGQYNMPYPPVYHQSPGQAPYPGPQQPSYPFPQPPQQSYYPQQ
modifications: full-length GFP fusion
midbody localization of GFP-ALIX (midbodies in HeLa cells): strongly localized to midbodies
